{"source": "patent US20200140538A1", "about": "(INSTITUTE FOR BASIC SCIENCE, published 2020)", "key": {"[1]": {"molecular_target": "T1, human interleukin-2 (hIL-2) (human, UniProt P60568 21-153)", "T1 construct": "mature; The 133-residue length in the definition corresponds to the mature protein; also called human IL-2", "T1 sequence (P60568 21-153)": "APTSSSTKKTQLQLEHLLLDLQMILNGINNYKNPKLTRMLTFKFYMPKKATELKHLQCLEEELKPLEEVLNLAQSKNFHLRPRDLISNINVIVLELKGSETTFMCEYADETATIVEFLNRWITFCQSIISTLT", "test": "kinetic affinity for hIL-2, Set 1; method not given"}, "[2]": {"molecular_target": "T1, human interleukin-2 (hIL-2)", "test": "kinetic affinity for hIL-2, Set 2; method not given"}, "[3]": {"molecular_target": "T1, human interleukin-2 (hIL-2)", "test": "SPR, Biacore T100; antibody immobilized on a CM5 chip by amine coupling, hIL-2 flowed as 2-fold dilutions from 100 nM", "procedure": "For detection of hIL-2, […] was used. 900 RU (Rmax=90) of anti-hIL-2 clones were immobilized on a CM5 chip by amine coupling. A 2-fold dilution (100 nM) of hIL-2 was allowed to flow on the chip at a rate of 10 μl/min for 3 minutes, and then dissociation of the hIL-2 was monitored for 10 minutes."}, "[4]": {"molecular_target": "T1, human interleukin-2 (hIL-2)", "test": "ELISA on plate coated with hIL-2 (5 µg/ml), titrated mAb, detection with anti-mouse IgG HRP or anti-rat IgG HRP"}, "mouse IL-2 (mIL-2)": {"molecular_target": "T2, mouse IL-2 (mIL-2) (mouse, UniProt P04351 21-169)", "T2 construct": "Coated on the ELISA plate at 5 ug/ml", "T2 sequence (looked up)": "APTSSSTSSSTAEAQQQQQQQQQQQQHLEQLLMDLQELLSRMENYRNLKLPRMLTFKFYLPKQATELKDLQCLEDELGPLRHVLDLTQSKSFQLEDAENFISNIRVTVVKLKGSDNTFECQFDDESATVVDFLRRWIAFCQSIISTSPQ", "test": "ELISA on plate coated with mIL-2 (5 µg/ml), titrated mAb, detection with anti-mouse IgG HRP or anti-rat IgG HRP", "procedure": "In vivo mouse models were used to evaluate the therapeutic efficacy of a hIL-2/TCB2 mAb complex. […] First, the splenocytes of BALB/c mice immunized 3-4 times with hIL-2 over several weeks were fused with SP/2 myeloma cells. When the hybridoma colony was visualized, the culture supernatant was subjected to ELISA. 5 μg/ml of hIL-2 or mIL-2 was added to and mixed with PBS, and a total of 50 μl of the mixture was coated on an ELISA plate. Next, 200 μl of 10% FBS was added to the PBS and incubated at room temperature for 30 minutes in order to prevent non-specific binding, and a titrated dose of the monoclonal antibody was incubated for 30 minutes. The binding of the monoclonal antibody to the coated hIL-2 or mIL-2 was detected with anti-mouse IgG HRP or anti-rat IgG HRP. In each step, the plate was washed 3-5 times with 200 μl of PBS. As positive controls, commercially available monoclonal antibodies were used. As a positive control for hIL-2, Mab602 was used, and as positive controls for mIL-2, JES6-1 and S4B6 were used."}, "[5]": {"molecular_target": "T1, human interleukin-2 (hIL-2)", "test": "kinetic affinity for hIL-2, Set 1; method not given; Set 1"}}, "data": [{"binder": "humanized TCB2 clone VH1+VL2 (antibody, V domains shown, Humanized and expressed with human IgG1 Fc; also called VL2+VH1; hnTCB2) VH: QVQLVQSGAEVKKPGASVKVSCKASGYTFTTYWIQWVRQAPGQGLEWMGAIYPGDGDTRYIQNFKGRVTMTRDTSTSTVYMELSSLRSEDTAVYYCARSLATRGFYAMDYWGQGTLVTVSS VL: DIVMTQSPSSLSASVGDRVTIRCITSTDIDDDMNWYQQKPGKAPKLLISEGNTLRPGVPSRFSGSGYGTDFTFTISSLQPEDIADYYCLQSDNLPYTFGGGTKLEIK", "values": [{"measurement": "Kd", "setting": "[1]", "result": 0.104, "unit": "nM"}, {"measurement": "koff", "setting": "[1]", "result": 0.00197, "unit": "s⁻¹"}, {"measurement": "kon", "setting": "[1]", "result": "1.89e+07", "unit": "M⁻¹ s⁻¹"}]}, {"binder": "humanized TCB2 clone VH2+VL2 (antibody, V domains shown, Humanized and expressed with human IgG1 Fc; also called VL2+VH2; hnTCB2) VH: QVQLVQSGAEVKKPGASVKLSCKASGYTFTTYWIQWVKQAPGQGLEWIGAIYPGDGDTRYIQNFKGRVTMTADTSTSTVYMELSSLRSEDTAVYYCARSLATRGFYAMDYWGQGTLVTVSS VL: DIVMTQSPSSLSASVGDRVTIRCITSTDIDDDMNWYQQKPGKAPKLLISEGNTLRPGVPSRFSGSGYGTDFTFTISSLQPEDIADYYCLQSDNLPYTFGGGTKLEIK", "values": [{"measurement": "Kd", "setting": "[1]", "result": 0.275, "unit": "nM"}, {"measurement": "koff", "setting": "[1]", "result": 0.00463, "unit": "s⁻¹"}, {"measurement": "kon", "setting": "[1]", "result": "1.68e+07", "unit": "M⁻¹ s⁻¹"}]}, {"binder": "humanized TCB2 clone AH03463 (VL03463+VH03463) (antibody, V domains shown, Humanized and expressed with human IgG1 Fc; also called hnTCB2) VH: EVQLVQSGAEVKKPGASVKVSCKASGYTFTTYWIQWVKQAPGQGLEWMGAIYPGDGDTRYIQNFKGRVTMTRDTSTSTVYMELSSLRSEDTAVYYCARSLATRGFYAMDYWGQGTLVTVSS VL: DIQMTQSPSSLSASVGDRVTITCITSTDIDDDMNWYQQKPGKAPKLLIYEGNTLRPGVPSRFSSSGSGTDFTFTISSLQPEDIATYYCLQSDNLPYTFGGGTKLEIK", "values": [{"measurement": "Kd", "setting": "[2]", "result": 0.198, "unit": "nM"}, {"measurement": "koff", "setting": "[2]", "result": 0.00418, "unit": "s⁻¹"}, {"measurement": "kon", "setting": "[2]", "result": "2.11e+07", "unit": "M⁻¹ s⁻¹"}]}, {"binder": "MAB602 (antibody, from another filing, V domains shown) VH: EVQLQESGPGLVAPSQSLSITCTVSGFSLTNYDISWIRQPPGKGLEWLGVIWTGGGTNYNSGFMSRLSITKDNSKSQVFLKMNSLQTDDTAIYYCVRQGRTPYWGQGTLVTVSA VL: DIQVTQSPSSLSVSLGDRVTITCKASKDIYNRLAWYQQKPGNAPRLLISGATSLETGVPSRFSGSGSGKDYTLTITSLQTEDVATYYCQQFWGTPYTFGGGTKLEIKR", "values": [{"measurement": "Kd", "setting": "[3]", "result": 0.213, "unit": "nM"}, {"measurement": "koff", "setting": "[3]", "result": 0.000948, "unit": "s⁻¹"}, {"measurement": "kon", "setting": "[3]", "result": "4.43e+06", "unit": "M⁻¹ s⁻¹"}, {"measurement": "EC50 (read off the curve)", "setting": "[4]", "result": 0.04, "unit": "µg/mL"}, {"measurement": "EC50 (read off the curve)", "setting": "mouse IL-2 (mIL-2)", "result": 0.03, "unit": "µg/mL"}]}, {"binder": "TCB2 monoclonal antibody (mouse TCB2) (antibody, V domains shown, Mouse hybridoma antibody from BALB/c mice immunized with hIL-2; It was detected with anti-mouse IgG HRP; also called TCB2 mAb; mTCB2) VH: EVQLQQSGAELARPGASVKLSCKASGYTFTTYWIQWVKQRPGQGLEWIGAIYPGDGDTRYIQNFKGKATLTADKSSSTAYMQLSSLASEDSAVYYCARSLATRGFYAMDYWGQGTSVTVSS VL: DIVMTQSPASLSMAIGEKVTIRCITSTDIDDDMNWYQQKPGEPPKLLISEGNTLRPGVPSRFSSSGYGTDFVFTIENMLSEDVADYYCLQSDNLPYTFGGGTKLEIK", "values": [{"measurement": "Kd", "setting": "[3]", "result": 0.0811, "unit": "nM"}, {"measurement": "koff", "setting": "[3]", "result": 0.000419, "unit": "s⁻¹"}, {"measurement": "kon", "setting": "[3]", "result": "5.17e+06", "unit": "M⁻¹ s⁻¹"}, {"measurement": "binding result", "setting": "mouse IL-2 (mIL-2)", "result": "no binding (tested: 10000 ng/ml)"}]}, {"binder": "human chimeric TCB2 (antibody, human IgG2, kappa, V domains shown, The Fab region of TCB2 mAb was cloned into an IgG2 expression vector; also called hcTCB2) VH: EVQLQQSGAELARPGASVKLSCKASGYTFTTYWIQWVKQRPGQGLEWIGAIYPGDGDTRYIQNFKGKATLTADKSSSTAYMQLSSLASEDSAVYYCARSLATRGFYAMDYWGQGTSVTVSS VL: DIVMTQSPASLSMAIGEKVTIRCITSTDIDDDMNWYQQKPGEPPKLLISEGNTLRPGVPSRFSSSGYGTDFVFTIENMLSEDVADYYCLQSDNLPYTFGGGTKLEIKR", "values": [{"measurement": "Kd", "setting": "[1]", "result": 0.0717, "unit": "nM"}, {"measurement": "koff", "setting": "[1]", "result": 0.00163, "unit": "s⁻¹"}, {"measurement": "kon", "setting": "[5]", "result": "2.27e+07", "unit": "M⁻¹ s⁻¹"}, {"measurement": "Kd", "setting": "[2]", "result": 0.0616, "unit": "nM"}, {"measurement": "koff", "setting": "[2]", "result": 0.00141, "unit": "s⁻¹"}, {"measurement": "kon", "setting": "[2]", "result": "2.29e+07", "unit": "M⁻¹ s⁻¹"}]}, {"binder": "S4B6 (antibody, V domains shown) VH: EVQLQESGAELVRPGTSVKLSCKVSGDTITAYYLHFVRQRPGQGLEWIGRIDPEDDSTKYAENFKNKATFTADASSNTAYLRLSSLTSEDTATYFCTTVTFYYSRELRWFAYWGQGTLVTVSS VL: DIQVTQSPASLSASLEEIVTITCQASQDIGNYLSWYQQKLGKSPQLLIHSATSLADGVPSRFSGSRSGTQYSLKINRLQVEDTGIYYCLQHYSTPYTFGAGTKLELK", "values": [{"measurement": "EC50 (read off the curve)", "setting": "mouse IL-2 (mIL-2)", "result": "~0.3", "unit": "µg/mL"}]}]}
